In paper PMC7641749 (Nucleic Acids Research, 2020):
Values joined by “and” are separate entries in the source; they are usually repeats but may differ in a detail not shown here. Equal entries are not always repeated.

Biological target: human ERH (residues 1–104), His6-tagged (human, UniProt P84090 1-104)
Experiment: ITC

Sequence of human ERH (residues 1–104), His6-tagged (P84090 whole entry, the tested form may be a part): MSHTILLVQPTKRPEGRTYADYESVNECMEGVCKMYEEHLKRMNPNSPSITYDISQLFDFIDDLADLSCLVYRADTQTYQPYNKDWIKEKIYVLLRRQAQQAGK

Kd: ~19.6 µM and ~19.7 µM
stoichiometry N: 0.965
Binder: PRTARHAPAVRKFSPDLKLLKDVKISVSFTE [His6-SUMO tagged DGCR8^96–126]
